Measurements: PMC9627735 (RSC Chemical Biology, 2022)

Tests used:
[1] = biological target: recombinant human wildtype Bri2 BRICHOS (human) (UniProt Q9Y287); test: SEC; rh Bri2 BRICHOS wildtype and D148N at rising concentrations, 0.5 to 200 μmol L^-1 (ESI Fig. S2a, b, S3, S4); monomer to dimer
[2] = biological target: recombinant human wildtype Bri2 BRICHOS (human) (UniProt Q9Y287); test: SEC; rh Bri2 BRICHOS at pH 6.0, 20 mmol L^-1 NaPi, 0.2 mmol L^-1 EDTA (ESI Fig. S2c, d); monomer to dimer
[3] = biological target: the molecule itself; test: other fluorescence titration; Trp fluorescence of rh Bri2 BRICHOS T206W monomers, 2 μmol L^-1, 20 mmol L^-1 NaPi, 0.2 mmol L^-1 EDTA, pH 6.3-8.0; excitation 280 nm; monomer to dimer
[4] = biological target: the molecule itself; test: SEC; rh Bri2 BRICHOS species obtained by thrombin cleavage of isolated NT*-Bri2 BRICHOS species; Superdex 200 PG, 200 GL or 75 PG; 20 mmol L^-1 NaPi, 0.2 mmol L^-1 EDTA
[5] = biological target: the molecule itself; test: SEC; rh Bri2 BRICHOS wildtype and D148N at rising concentrations, 0.5 to 200 μmol L^-1 (ESI Fig. S2a, b, S3, S4); monomer to dimer
[6] = biological target: the molecule itself; test: SEC; purified rh proSP-C BRICHOS variants on Superdex 200 GL

recombinant human wildtype Bri2 BRICHOS (from UniProt Q9Y287 113-231) (domain or fragment)
stoichiometry N [1]: 2 | stoichiometry N [2]: 2

B1: recombinant human Bri2 BRICHOS T206W (domain or fragment, UniProt Q9Y287 113-231, looked up)
chain: QTIEENIKIFEEEEVEFISVPVPEFADSDPANIVHDFNKKLTAYLDLNLDKCYVIPLNTSIVMPPRNLLELLINIKAGTYLPQSYLIHEHMVIWDRIENIDHLGFFIYRLCHDKETYKL
notes: integral membrane protein 2B (ITM2B, Bri2), human, BRICHOS domain, residues 113-231, with Thr206 replaced by Trp; also called rh Bri2 BRICHOS T206W; source: E. coli SHuffle T7, purified (Ni-NTA, thrombin cleavage, second Ni-NTA, SEC); not shown: His6, N-terminal, cleaved; NT*, N-terminal, cleaved
binding result [3]: binds

B2: recombinant human Bri2 BRICHOS D148N (domain or fragment, UniProt Q9Y287 113-231, looked up)
chain: QTIEENIKIFEEEEVEFISVPVPEFADSDPANIVHNFNKKLTAYLDLNLDKCYVIPLNTSIVMPPRNLLELLINIKAGTYLPQSYLIHEHMVITDRIENIDHLGFFIYRLCHDKETYKL
notes: integral membrane protein 2B (ITM2B, Bri2), human, BRICHOS domain, residues 113-231, with D148N; Occurs as monomers, dimers and large oligomers, isolated by SEC; all species are this one construct; also called rh Bri2 BRICHOS D148N; source: E. coli SHuffle T7, purified (Ni-NTA, thrombin cleavage, second Ni-NTA, SEC); not shown: His6, N-terminal, cleaved; NT*, N-terminal, cleaved
stoichiometry N [4]: 2 | ratio of dimers to monomers at 0.5 μmol L^-1 [5]: ~1

B3: recombinant human wildtype proSP-C BRICHOS (domain or fragment, UniProt P11686 86-197, looked up)
chain: EHLVTTATFSIGSTGLVVYDYQQLLIAYKPAPGTCCYIMKIAPESIPSLEALTRKVHNFQMECSLQAKPAVPTSKLGQAEGRDAGSAPSGGDPAFLGMAVSTLCGEVPLYYI
notes: prosurfactant protein C (proSP-C), human, BRICHOS domain, residues 86-197; Forms trimers and some monomers on SEC; also called rh wildtype proSP-C BRICHOS; wt proSP-C BRICHOS; source: E. coli Origami 2 (DE3) pLysS, purified (Ni-NTA, ion exchange); not shown: thioredoxin, N-terminal, cleaved
stoichiometry N [6]: 3

B4: recombinant human proSP-C BRICHOS D105N (domain or fragment, UniProt P11686 86-197, looked up)
chain: EHLVTTATFSIGSTGLVVYNYQQLLIAYKPAPGTCCYIMKIAPESIPSLEALTRKVHNFQMECSLQAKPAVPTSKLGQAEGRDAGSAPSGGDPAFLGMAVSTLCGEVPLYYI
notes: prosurfactant protein C (proSP-C), human, BRICHOS domain, residues 86-197, with D105N; Made by site-directed mutagenesis of the wildtype plasmid; expressed and purified in parallel with the wildtype; also called rh proSP-C BRICHOS D105N; D105N mutant; source: E. coli Origami 2 (DE3) pLysS, purified (Ni-NTA, ion exchange); not shown: thioredoxin, N-terminal, cleaved
stoichiometry N [6]: 3
